This is an account of results in US20260242735A1.

In one experiment the target is human CD33 C41A (human) (UniProt P20138). In words: alanine scan, flow cytometry. In general terms: In flow cytometry, cells or beads pass a laser one at a time.
The target in experiment [1] is human CD33 C212A (human) (UniProt P20138). Kind of experiment: alanine scan, flow cytometry, HEK293-T.
Experiment [2] has as its target human CD33 extracellular region F21L (human) (UniProt P20138). Kind of experiment: BLI Octet, IgG captured on AHC, CD33 analyte. A general note: In BLI a coated tip is dipped into the sample, and binding shifts an interference pattern.
The target in the next experiment is human CD33 V138A (human) (UniProt P20138). Kind of experiment: flow cytometry on HEK293-T, alanine scan.
The target of experiment [3] is human CD33 variant Y49S (human) (UniProt P20138). Kind of experiment: flow cytometry, IgG on cells expressing the mutant.
The target of another experiment is human CD33 V231A (human) (UniProt P20138). Kind of experiment: alanine scan, flow cytometry, HEK293-T.
A further experiment deals with human CD33 K52F (human) (UniProt P20138). Kind of experiment: flow cytometry, transfected cells, IgG.
In a further experiment the target is human CD33 L134R (human) (UniProt P20138). Kind of experiment: flow cytometry, transfected cells, IgG.
The target in experiment [4] is human CD33 C212A (human) (UniProt P20138). In words: alanine scan, flow cytometry.
For a further experiment, the target named is human CD33 Q26A (human) (UniProt P20138). Kind of experiment: flow cytometry, alanine scan.
For another experiment, the target named is human CD33 V25A (human) (UniProt P20138). In words: flow cytometry, alanine scan.
Experiment [5] addresses human CD33 F44A (human) (UniProt P20138). In words: flow cytometry, alanine scan.
The next experiment deals with human CD33 Q24A (human) (UniProt P20138). In words: flow cytometry, alanine scan.
For experiment [6], the target named is human CD33 Y129A (human) (UniProt P20138). Kind of experiment: alanine scan, flow cytometry, HEK293-T.
A further experiment deals with human CD33 L134A (human) (UniProt P20138). Kind of experiment: alanine scan, flow cytometry, HEK293-T.
In experiment [7] the target is human CD33 F44A (human) (UniProt P20138). Kind of experiment: alanine scan, flow cytometry.
In a further experiment the target is human CD33 C101A (human) (UniProt P20138). In words: flow cytometry on HEK293-T, alanine scan.
The next experiment has as its target human CD33 M120A (human) (UniProt P20138). In words: flow cytometry on HEK293-T, alanine scan.
Experiment [8] deals with human CD33 Y129A (human) (UniProt P20138). In words: flow cytometry on HEK293-T, alanine scan.
Experiment [9] has as its target human CD33 variant Y129S (human) (UniProt P20138). Kind of experiment: flow cytometry, IgG on cells expressing the mutant.

Chain of human CD33 K52F (human) (P20138 18-364 K52F limits assumed): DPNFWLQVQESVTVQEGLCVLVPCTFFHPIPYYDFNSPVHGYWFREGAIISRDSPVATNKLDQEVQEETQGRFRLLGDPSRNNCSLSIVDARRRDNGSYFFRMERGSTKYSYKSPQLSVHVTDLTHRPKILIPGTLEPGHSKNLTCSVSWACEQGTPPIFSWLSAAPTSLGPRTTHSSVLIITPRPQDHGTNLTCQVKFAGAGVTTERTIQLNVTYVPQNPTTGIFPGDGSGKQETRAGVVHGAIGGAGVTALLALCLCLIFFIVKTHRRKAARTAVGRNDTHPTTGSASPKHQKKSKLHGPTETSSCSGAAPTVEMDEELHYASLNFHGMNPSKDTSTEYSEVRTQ
Chain of human CD33 Y129A (human) (P20138 18-364 Y129A limits assumed): as the sequence (P20138 18-364 K52F limits assumed) above, with F35K, Y112A counted along it
Chain of human CD33 C212A (human) (P20138 18-364 C212A limits assumed): as the sequence (P20138 18-364 K52F limits assumed) above, with F35K, C195A counted along it
Chain of human CD33 F44A (human) (P20138 18-364 F44A limits assumed): as the sequence (P20138 18-364 K52F limits assumed) above, with F27A, F35K counted along it
Chain of human CD33 L134R (human) (P20138 18-364 L134R limits assumed): as the sequence (P20138 18-364 K52F limits assumed) above, with F35K, L117R counted along it
Chain of human CD33 C101A (human) (P20138 18-364 C101A limits assumed): as the sequence (P20138 18-364 K52F limits assumed) above, with F35K, C84A counted along it
Chain of human CD33 Q26A (human) (P20138 18-364 Q26A limits assumed): as the sequence (P20138 18-364 K52F limits assumed) above, with Q9A, F35K counted along it
Chain of human CD33 V25A (human) (P20138 18-364 V25A limits assumed): as the sequence (P20138 18-364 K52F limits assumed) above, with V8A, F35K counted along it
Chain of human CD33 Q24A (human) (P20138 18-364 Q24A limits assumed): as the sequence (P20138 18-364 K52F limits assumed) above, with Q7A, F35K counted along it
Chain of human CD33 extracellular region F21L (human) (P20138 other isoform, or with tags, fused parts or gaps F21L F21L): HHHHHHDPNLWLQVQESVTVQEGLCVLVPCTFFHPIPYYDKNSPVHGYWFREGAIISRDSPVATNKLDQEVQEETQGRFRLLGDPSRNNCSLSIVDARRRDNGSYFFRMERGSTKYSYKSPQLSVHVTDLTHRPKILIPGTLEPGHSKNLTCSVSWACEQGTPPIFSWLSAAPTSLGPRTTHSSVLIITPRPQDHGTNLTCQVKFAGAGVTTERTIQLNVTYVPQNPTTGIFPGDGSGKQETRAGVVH
Chain of human CD33 C41A (human) (P20138 18-364 C41A limits assumed): as the sequence (P20138 18-364 K52F limits assumed) above, with C24A, F35K counted along it
Chain of human CD33 variant Y49S (human) (P20138 18-364 Y49S limits assumed): as the sequence (P20138 18-364 K52F limits assumed) above, with Y32S, F35K counted along it
Chain of human CD33 variant Y129S (human) (P20138 18-364 Y129S limits assumed): as the sequence (P20138 18-364 K52F limits assumed) above, with F35K, Y112S counted along it
Chain of human CD33 V231A (human) (P20138 18-364 V231A limits assumed): as the sequence (P20138 18-364 K52F limits assumed) above, with F35K, V214A counted along it
Chain of human CD33 M120A (human) (P20138 18-364 M120A limits assumed): as the sequence (P20138 18-364 K52F limits assumed) above, with F35K, M103A counted along it
Chain of human CD33 V138A (human) (P20138 18-364 V138A limits assumed): as the sequence (P20138 18-364 K52F limits assumed) above, with F35K, V121A counted along it
Chain of human CD33 L134A (human) (P20138 18-364 L134A limits assumed): as the sequence (P20138 18-364 K52F limits assumed) above, with F35K, L117A counted along it

B1: Refmab #1 (antibody, human IgG1, V domains shown)
VH: EVQLVQSGAEVKKPGSSVKVSCKASGYTITDSNIHWVRQAPGQSLEWIGYIYPYNGGTDYNQKFKNRATLTVDNPTNTAYMELSSLRSEDTAFYYCVNGNPWLAYWGQGTLVTVSS
VL: DIQLTQSPSTLSASVGDRVTITCRASESLDNYGIRFLTWFQQKPGKAPKLLMYAASNQGSGVPSRFSGSGSGTEFTLTISSLQPDDFATYYCQQTKEVPWSFGQGTKVEVK
Take B1: the Mean % WT Binding stood at 14 % WT with human CD33 C41A (human) and 17.2% with human CD33 C212A (human) [1]. In [2], this molecule displayed a % WT binding of 1.52%.

B2: Refmab #4 (antibody, human IgG1, V domains shown)
VH: QVQLVQSGAEVKKPGESVKVSCKASGYTFTNYGMNWVKQAPGQGLEWMGWINTYTGEPTYADKFQGRVTMTTDTSTSTAYMEIRNLGGDDTAVYYCARWSWSDGYYVYFDYWGQGTSVTVSS
VL: DIVMTQSPDSLTVSLGERTTINCKSSQSVLDSSTNKNSLAWYQQKPGQPPKLLLSWASTRESGIPDRFSGSGSGTDFTLTIDSPQPEDSATYYCQQSAHFPITFGQGTRLEIK
On to B2, for which the results for the Mean % WT Binding (in the experiment with human CD33 V138A (human); in experiment [3]; with human CD33 V231A (human)) were 54.1 % WT binding, 9.8 % of WT and 79.3%, respectively.

B3: Refmab #6 (antibody, human IgG1, V domains shown)
VH: QVQLQQPGAEVVKPGASVKMSCKASGYTFTSYYIHWIKQTPGQGLEWVGVIYPGNDDISYNQKFQGKATLTADKSSTTAYMQLSSLTSEDSAVYYCAREVRLRYFDVWGQGTTVTVSS
VL: EIVLTQSPGSLAVSPGERVTMSCKSSQSVFFSSSQKNYLAWYQQIPGQSPRLLIYWASTRESGVPDRFTGSGSGTDFTLTISSVQPEDLAIYYCHQYLSSRTFGQGTKLEIK
In the case of B3, the Mean % WT Binding with human CD33 K52F (human) is 2.5%; in the experiment with human CD33 L134R (human) it was 1%; with human CD33 C212A (human) [4], 16.2 % WT binding; with human CD33 Q26A (human), 76.1 % of WT; with human CD33 V25A (human), 16.7 % of WT; with human CD33 F44A (human) [5] it was 14 % of WT. Moreover, the Mean % WT Binding is 18.1 % of WT with human CD33 Q24A (human), 76.7 % WT binding with human CD33 Y129A (human) [6] and 19.5 % WT binding in the experiment with human CD33 L134A (human).

B4: Refmab #5 (antibody, human IgG1, V domains shown)
VH: QVQLVQSGAEVKKPGASVKVSCKASGYTFTNYDINWVRQAPGQGLEWIGWIYPGDGSTKYNEKFKAKATLTADTSTSTAYMELRSLRSDDTAVYYCASGYEDAMDYWGQGTTVTVSS
VL: DIQMTQSPSSLSASVGDRVTINCKASQDINSYLSWFQQKPGKAPKTLIYRANRLVDGVPSRFSGSGSGQDYTLTISSLQPEDFATYYCLQYDEFPLTFGGGTKVEIK
For the molecule B4, the results for the Mean % WT Binding with human CD33 K52F (human) and with human CD33 L134R (human) were 2.5% and 5%, respectively.

B5: Refmab #3 (antibody, human IgG1, V domains shown)
VH: QVQLVQSGAEVKKPGSSVKVSCKASGYTFTDYNMHWVRQAPGQGLEWIGYIYPYNGGTGYNQKFKSKATITADESTNTAYMELSSLRSEDTAVYYCARGRPAMDYWGQGTLVTVSS
VL: DIQMTQSPSSLSASVGDRVTITCRASESVDNYGISFMNWFQQKPGKAPKLLIYAASNQGSGVPSRFSGSGSGTDFTLTISSLQPDDFATYYCQQSKEVPWTFGQGTKVEIK
Consider B5, for which the Mean % WT Binding is 18.9 % WT with human CD33 F44A (human) [7]; 13.6 % WT binding with human CD33 C101A (human); 15.7 % WT binding in the experiment with human CD33 M120A (human); 15.6 % WT binding with human CD33 Y129A (human) [8]; 7.6 % of WT in experiment [9].
